These results are taken from US20250296984A1, “THERAPEUTIC AND DIAGNOSTIC AGENTS AND USES THEREOF” (priority 2022, published 2025).

Test [1] addresses T1, US28 protein from HCMV strain TB40/E on HEK Phoenix Ampho cells (Human cytomegalovirus, UniProt P69332, A8T/D15E/E18L/V24T).
T1 construct: expressed in transfected cells; host or cells: HEK Phoenix Ampho (ATCC-CRL-3213)
As to the kind of experiment: Flow cytometry, HEK Phoenix Ampho cells transfected with US28 (TB40/E). The test is classed as binding. To be noted: mock subtracted, fold-difference minus 1, sign = increase or decrease. Here is the method:
(§1) ii. Materials: • Cells: HEK Phoenix Ampho (ATCC-CRL-3213), p 21. • Staining buffer: PBS with 1% BSA, 2 mM EDTA. • Plasmid: Encoding US28 protein from different HCMV strains: DB; TB40/E; Merlin; and VHL/E. • Blocking: Human TruStain FcX™ (ref 422302). • Live Dead: Invitrogen™ eBioscience™ Fixable Viability Dye eFluor™ 780 (ref 13539140). • Primary antibodies: 7B1F3 (6.76 nM=1 μg/ml); hum7B1F3 (6.76 nM=1 μg/ml).
(§2) The day before transfection, HEK Ampho cells were seeded in a 1×6-well plate with 1×10^6 live cells/well, 2 mL/well. Seeded 4 wells for HEKPhoenix_plasmids. Seeded 2 wells for HEKPhoenix_Mock transfected. Incubated the cells in a 37° C. incubator with >80% relative humidity and 5% CO2.
(§3) After 1 day, cells will have adhered and reached >60% confluency. Removed 700 uL media from each well prior to transfection. Allowed X-tremeGENE™ HP DNA Transfection Reagent, DNA and diluent Opti-MEM® I Reduced Serum Medium to warm to +15° C. to +25° C., and vortexed gently. Placed 100 μL diluent in a sterile tube for each condition. Added 1 μg plasmid DNA. Pipetted gently to mix (DNA was not added for the mock condition): • DB (683.3 ng/μL): 1.46 μL • TB40/E (742.05 ng/μL): 1.35 μL • Merlin (70.78 ng/μL): 14.13 μL • VHL/E (51.87 ng/μL): 19.28 μL
(§4) Added 3 μL X-tremeGENE™ HP DNA Transfection Reagent to the diluted DNA. (3:1 ratio of reagent to DNA). Pipetted gently to mix, then: • 1. […]
(In general: In flow cytometry, cells or beads pass a laser one at a time.)

The target of test [2] is T2, US28 protein from HCMV strain Merlin on HEK Phoenix Ampho cells (Human cytomegalovirus, UniProt P69332, S330G).
T2 construct: expressed in transfected cells; host or cells: HEK Phoenix Ampho (ATCC-CRL-3213)
The experiment in a line: Flow cytometry, HEK Phoenix Ampho cells transfected with US28 (Merlin). Type of test: binding. To be noted: mock subtracted, fold-difference minus 1, sign = increase or decrease. The procedure:
as §1, §2, §3, §4

Test [3] relates to HEKPhoenix_Mock transfected cells. The experiment in a line: Flow cytometry, HEKPhoenix Mock transfected cells. Type of test: binding, human. To be noted: antibody concentration 6.76 nM, Myc tag detection. The procedure: as §1, §2, §3, §4
For test [4], the target named is T3, US28 protein from HCMV strain DB on HEK Phoenix Ampho cells (Human cytomegalovirus, UniProt P69332, D170N/D19A).
T3 construct: expressed in transfected cells; host or cells: HEK Phoenix Ampho (ATCC-CRL-3213)
The experiment in a line: Flow cytometry, HEK Phoenix Ampho cells transfected with US28 (DB). The test is classed as binding. To be noted: mock subtracted, fold-difference minus 1, sign = increase or decrease. The procedure: as §1, §2, §3, §4

B1: 7B1F3-Myc: 7B1F3 labelled with a Myc tag (antibody, V domains shown)
VH: EVQLQQSGAELAKPGASVKMSCKASGYTFTNYWMHWVKQRPGQGLEWIGYVNPRTGYTEYNQKFKDKATLTADKSSRTAYMQLSSLTSEDSAVYSCARILNGTGFAYWGQGTLVTVSA
VL: DIVLTQSPSSLTVSVGEKFTMSCKSSQSLLYSSNQKNYLAWYQQKPGQSPKLLIYWASTRESGVPDRFTGSGSGTDFTLAISSVKPEDLAIYYCQQYYSFPLTFGAGTKLEIK
In the case of B1, the “Variation in binding, relative to determined binding to US28 as encoded by VHL/E; TB40/E” value in test [1] was “+0.14”. For the same molecule, the “Variation in binding, relative to determined binding to US28 as encoded by VHL/E; Merlin” value in test [2] was “+0.21”. In test [3], the “Preliminary Binding Data, Mock” value worked out at 0.06. Besides, the “Variation in binding, relative to determined binding to US28 as encoded by VHL/E; DB” value in test [4] is on record as “+0.64”.
